# Experimental data reported in article PMC7412794.
# Entries after “also recorded” stand apart in the source; their conditions may differ.
# B1: Trichoderma reesei Cel7A (TrCel7A): endoglycosidase H (protein)
# parent chain: MYRKLAVISAFLATARAQSACTLQSETHPPLTWQKCSSGGTCTQQTGSVVIDANWRWTHATNSSTNCYDGNTWSSTLCPDNETCAKNCCLDGAAYASTYGVTTSGNSLSIGFVTQSAQKNVGARLYLMASDTTYQEFTLLGNEFSFDVDVSQLPCGLNGALYFVSMDADGGVSKYPTNTAGAKYGTGYCDSQCPRDLKFINGQANVEGWEPSSNNANTGIGGHGSCCSEMDIWEANSISEALTPHPCTTVGQEICEGDGCGGTYSDNRYGGTCDPDGCDWNPYRLGNTSFYGPGSSFTLDTTKKLTVVTQFETSGAINRYYVQNGVTFQQPNAELGSYSGNELNDDYCTAEEAEFGGSSFSDKGGLTQFKKATSGGMVLVMSLWDDYYANMLWLDSTYPTNETSSTPGAVRGSCSTSSGVPAQVESQSPNAKVTFSNIKFGPIGSTGNPSGGNPPGGNRGTTTTRRPATTTGSSPGPTQSHYGQCGGIGYSGPTVCASGTTCQVLNPYYSQCL
# B2: Trichoderma reesei Cel7A (TrCel7A): N45QAo (protein)
# parent chain: B1 parent chain
# B3: Trichoderma reesei Cel7A (TrCel7A): ΔN-glycAo (protein)
# parent chain: B1 parent chain
# B4: Trichoderma reesei Cel7A (TrCel7A): ΔN-glycTr (protein)
# parent chain: B1 parent chain
# B5: Trichoderma reesei Cel7A (TrCel7A): N270QAo (protein)
# parent chain: B1 parent chain
# B6: Trichoderma reesei Cel7A (TrCel7A): N384QAo (protein)
# parent chain: B1 parent chain
# Tests used:
# [1] = invMM kinetics, 12 g/L Avicel; conditions: glycan lost; control: untreated TrCel7A CD (no linker, no CBM)
# DSC = conditions: glycan lost
# [2] = pNP-Lac activity after 1 h at Tm−5 °C; conditions: glycan lost
# [3] = convMM kinetics, 50 °C, 1 h, reducing ends; conditions: glycan lost; control: WTAo
# [4] = invMM kinetics (enzyme excess), 50 °C, 1 h; conditions: glycan lost; control: WTAo
Protein,"stability_or_folding, Tm (DSC; control: WTAo)","stability_or_folding, other: residual activity ([2]; control: WTAo)","enzymatic_activity, other: convVmax/E0 (kcat) [3]",other results
B1,–,–,–,enzymatic_activity [1]: increases
B2,"decreases, 67.4 vs 67.9","decreases, 38 ± 2 vs 57 ± 1","no change, 1.33 ± 0.09 vs 1.46 ± 0.14","enzymatic_activity, other: invVmax/S0 [4]: increases, 0.52 ± 0.02 vs 0.45 ± 0.02"
B3,"decreases, 65.0 vs 67.9","decreases, 41 ± 2 vs 57 ± 1",–,–
B4,–,–,–,"stability_or_folding, Tm (DSC; control: WTTr): decreases, 65.2 vs 67.9; stability_or_folding, other: residual activity ([2]; control: WTTr): no change, 44 ± 1 vs 45 ± 2"
B5,"decreases, 66.9 vs 67.9","no change, 60 ± 3 vs 57 ± 1",–,–
B6,"decreases, 66.1 vs 67.9","no change, 57 ± 3 vs 57 ± 1","decreases, 0.34 ± 0.01 vs 0.48 ± 0.02; also recorded: decreases, 1.01 ± 0.03 vs 1.46 ± 0.14",–
